Source: article PMC9482650, “Quantitative fragmentomics allow affinity mapping of interactomes” (Nature Communications, 2022)

Columns and labels:
Test in all cases: holdup assay
Set-up in all cases: key: below the threshold = too weak to quantify, mostly under pKd 3.1 to 4
APBA1_2, Q02410 = molecular target: T1, APBA1_2, Q02410
T1 sequence (Q02410 742-832, limits assumed, looked up): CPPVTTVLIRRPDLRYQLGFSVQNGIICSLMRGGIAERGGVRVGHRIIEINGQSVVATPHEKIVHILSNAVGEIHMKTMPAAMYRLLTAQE

APBA2_1, Q99767 = molecular target: T2, APBA2_1, Q99767
T2 sequence (Q99767 563-664, limits assumed, looked up): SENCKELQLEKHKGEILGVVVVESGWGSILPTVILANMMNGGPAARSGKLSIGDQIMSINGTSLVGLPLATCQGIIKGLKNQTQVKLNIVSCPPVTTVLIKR

CASK, O14936 = molecular target: CASK, O14936
DFNB31_1, Q9P202 = molecular target: T3, DFNB31_1, Q9P202
T3 sequence (Q9P202 135-233, limits assumed, looked up): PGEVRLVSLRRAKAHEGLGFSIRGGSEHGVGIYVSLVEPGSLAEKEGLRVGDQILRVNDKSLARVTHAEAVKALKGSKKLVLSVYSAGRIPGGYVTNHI

DFNB31_2, Q9P202 = molecular target: T4, DFNB31_2, Q9P202
T4 sequence (Q9P202 274-371, limits assumed, looked up): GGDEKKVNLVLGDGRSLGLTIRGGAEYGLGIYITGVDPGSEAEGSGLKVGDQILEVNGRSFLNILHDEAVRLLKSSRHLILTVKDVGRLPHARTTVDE

DLG1_1, Q12959 = molecular target: DLG1_1, Q12959
DLG1_2, Q12959 = molecular target: DLG1_2, Q12959
DLG1_3, Q12959 = molecular target: DLG1_3, Q12959
GIPC2, Q8TF65 = molecular target: GIPC2, Q8TF65
GRIP1_5, Q9Y3R0 = molecular target: T5, GRIP1_5, Q9Y3R0
T5 sequence (Q9Y3R0 568-668, limits assumed, looked up): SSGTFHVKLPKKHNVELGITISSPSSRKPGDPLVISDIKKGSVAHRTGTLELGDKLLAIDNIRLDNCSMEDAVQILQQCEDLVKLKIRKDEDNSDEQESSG

GRIP2_6, Q9C0E4 = molecular target: GRIP2_6, Q9C0E4
HTRA4, P83105 = molecular target: T6, HTRA4, P83105
T6 sequence (P83105 378-476, limits assumed, looked up): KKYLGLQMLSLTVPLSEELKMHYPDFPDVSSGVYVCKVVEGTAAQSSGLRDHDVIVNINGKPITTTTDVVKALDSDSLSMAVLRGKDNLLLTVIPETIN

Inadl_3, Q8NI35 = molecular target: Inadl_3, Q8NI35
LNX2_3, Q8N448 = molecular target: T7, LNX2_3, Q8N448
T7 sequence (Q8N448 463-564, limits assumed, looked up): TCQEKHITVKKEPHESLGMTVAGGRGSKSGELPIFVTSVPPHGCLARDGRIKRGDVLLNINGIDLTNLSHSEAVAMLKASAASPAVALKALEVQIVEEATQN

LRRC7, Q96NW7 = molecular target: T8, LRRC7, Q96NW7
T8 sequence (Q96NW7 1440-1537, limits assumed, looked up): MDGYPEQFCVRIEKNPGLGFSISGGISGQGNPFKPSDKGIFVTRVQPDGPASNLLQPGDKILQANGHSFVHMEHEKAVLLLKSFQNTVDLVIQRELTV

MAGI2_6, Q86UL8 = molecular target: MAGI2_6, Q86UL8
MAST1, Q9Y2H9 = molecular target: MAST1, Q9Y2H9
NHERF2_2, Q15599 = molecular target: NHERF2_2, Q15599
NHERF3_1, Q5T2W1 = molecular target: T9, NHERF3_1, Q5T2W1
T9 sequence (Q5T2W1 4-100, limits assumed, looked up): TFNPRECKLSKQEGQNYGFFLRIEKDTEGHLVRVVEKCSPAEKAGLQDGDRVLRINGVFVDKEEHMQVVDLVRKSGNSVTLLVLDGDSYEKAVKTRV

NHERF4_2, Q86UT5 = molecular target: NHERF4_2, Q86UT5
PDZD7_3, Q9H5P4 = molecular target: T10, PDZD7_3, Q9H5P4
T10 sequence (Q9H5P4 857-944, limits assumed, looked up): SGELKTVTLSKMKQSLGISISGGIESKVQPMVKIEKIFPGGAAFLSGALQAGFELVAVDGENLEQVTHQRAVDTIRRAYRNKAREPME

SCRIB_1, Q14160 = molecular target: SCRIB_1, Q14160
SIPA1L2, Q9P2F8 = molecular target: T11, SIPA1L2, Q9P2F8
T11 sequence (Q9P2F8 945-1036, limits assumed, looked up): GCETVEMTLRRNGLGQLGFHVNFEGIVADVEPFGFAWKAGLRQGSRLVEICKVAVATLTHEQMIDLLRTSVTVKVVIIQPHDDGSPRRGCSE

TIAM2, Q8IVF5 = molecular target: T12, TIAM2, Q8IVF5
T12 sequence (Q8IVF5 885-986, limits assumed, looked up): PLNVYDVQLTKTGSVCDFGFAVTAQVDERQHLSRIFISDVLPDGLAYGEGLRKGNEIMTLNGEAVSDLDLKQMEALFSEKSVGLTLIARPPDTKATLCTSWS

TJP3_3, O95049 = molecular target: T13, TJP3_3, O95049
T13 sequence (O95049 375-456, limits assumed, looked up): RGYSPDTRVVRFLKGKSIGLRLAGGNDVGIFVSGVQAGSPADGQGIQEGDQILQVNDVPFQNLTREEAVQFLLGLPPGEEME

[1] = plain residues with an end cap or a label only (N-terminal biotin on a linker: ado-ado)
[2] = modified: phospho on S at position -3 from the C-terminal residue

Sequence of NHERF2_2, Q15599 (Q15599 142-238): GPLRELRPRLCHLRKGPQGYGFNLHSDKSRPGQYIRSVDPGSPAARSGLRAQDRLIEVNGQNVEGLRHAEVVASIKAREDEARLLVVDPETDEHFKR
Sequence of CASK, O14936 (O14936 487-570): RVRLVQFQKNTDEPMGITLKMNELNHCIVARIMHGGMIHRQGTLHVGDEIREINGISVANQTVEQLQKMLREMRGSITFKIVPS
Sequence of MAST1, Q9Y2H9 (Q9Y2H9 962-1065): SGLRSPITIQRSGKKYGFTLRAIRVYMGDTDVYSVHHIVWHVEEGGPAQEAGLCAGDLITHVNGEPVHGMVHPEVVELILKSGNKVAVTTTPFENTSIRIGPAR
Sequence of GRIP2_6, Q9C0E4 (Q9C0E4 648-740): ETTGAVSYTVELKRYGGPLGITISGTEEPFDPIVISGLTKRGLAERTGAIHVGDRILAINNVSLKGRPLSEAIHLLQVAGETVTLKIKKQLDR
Sequence of Inadl_3, Q8NI35 (Q8NI35 359-469): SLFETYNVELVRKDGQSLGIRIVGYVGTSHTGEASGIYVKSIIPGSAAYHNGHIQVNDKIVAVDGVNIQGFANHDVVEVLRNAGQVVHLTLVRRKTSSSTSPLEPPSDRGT
Sequence of NHERF4_2, Q86UT5 (Q86UT5 220-308): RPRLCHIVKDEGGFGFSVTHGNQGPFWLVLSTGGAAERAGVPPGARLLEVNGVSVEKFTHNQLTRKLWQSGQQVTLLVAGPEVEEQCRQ
Sequence of MAGI2_6, Q86UL8 (Q86UL8 1141-1229): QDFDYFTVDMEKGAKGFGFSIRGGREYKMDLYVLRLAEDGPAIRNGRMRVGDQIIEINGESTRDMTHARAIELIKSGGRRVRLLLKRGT
Sequence of GIPC2, Q8TF65 (Q8TF65 112-203): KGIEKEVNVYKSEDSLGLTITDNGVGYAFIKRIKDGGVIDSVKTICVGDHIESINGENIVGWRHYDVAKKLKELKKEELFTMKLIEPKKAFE
Sequence of SCRIB_1, Q14160 (Q14160 718-814): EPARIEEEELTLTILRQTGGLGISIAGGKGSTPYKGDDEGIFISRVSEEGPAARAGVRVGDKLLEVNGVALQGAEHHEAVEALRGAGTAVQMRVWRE

## RALRASESGI [ADGRE5, P48960]
APBA1_2, Q02410; [1]
  pKd: below the threshold
APBA2_1, Q99767; [1]
  pKd: below the threshold
CASK, O14936; [1]
  pKd: below the threshold
DFNB31_1, Q9P202; [1]
  pKd: 3.65
DFNB31_2, Q9P202; [1]
  pKd: below the threshold
DLG1_1, Q12959; [1]
  pKd: below the threshold
DLG1_2, Q12959; [1]
  pKd: below the threshold
DLG1_3, Q12959; [1]
  pKd: below the threshold
GIPC2, Q8TF65; [1]
  pKd: below the threshold
GRIP1_5, Q9Y3R0; [1]
  pKd: below the threshold
GRIP2_6, Q9C0E4; [1]
  pKd: below the threshold
HTRA4, P83105; [1]
  pKd: 3.62
Inadl_3, Q8NI35; [1]
  pKd: below the threshold
LNX2_3, Q8N448; [1]
  pKd: below the threshold
LRRC7, Q96NW7; [1]
  pKd: below the threshold
MAGI2_6, Q86UL8; [1]
  pKd: below the threshold
MAST1, Q9Y2H9; [1]
  pKd: below the threshold
NHERF2_2, Q15599; [1]
  pKd: below the threshold
NHERF3_1, Q5T2W1; [1]
  pKd: below the threshold
NHERF4_2, Q86UT5; [1]
  pKd: below the threshold
PDZD7_3, Q9H5P4; [1]
  pKd: below the threshold
SCRIB_1, Q14160; [1]
  pKd: below the threshold
SIPA1L2, Q9P2F8; [1]
  pKd: below the threshold
TIAM2, Q8IVF5; [1]
  pKd: below the threshold
TJP3_3, O95049; [1]
  pKd: below the threshold

## LETREPTNTL [GRIP1, Q9Y3R0]
APBA1_2, Q02410; [1]
  pKd: below the threshold
APBA2_1, Q99767; [1]
  pKd: below the threshold
CASK, O14936; [1]
  pKd: below the threshold
DFNB31_1, Q9P202; [1]
  pKd: below the threshold
DFNB31_2, Q9P202; [1]
  pKd: below the threshold
DLG1_1, Q12959; [1]
  pKd: below the threshold
DLG1_2, Q12959; [1]
  pKd: below the threshold
DLG1_3, Q12959; [1]
  pKd: below the threshold
GIPC2, Q8TF65; [1]
  pKd: below the threshold
GRIP1_5, Q9Y3R0; [1]
  pKd: below the threshold
GRIP2_6, Q9C0E4; [1]
  pKd: below the threshold
HTRA4, P83105; [1]
  pKd: below the threshold
Inadl_3, Q8NI35; [1]
  pKd: below the threshold
LNX2_3, Q8N448; [1]
  pKd: below the threshold
LRRC7, Q96NW7; [1]
  pKd: below the threshold
MAGI2_6, Q86UL8; [1]
  pKd: below the threshold
MAST1, Q9Y2H9; [1]
  pKd: below the threshold
NHERF2_2, Q15599; [1]
  pKd: below the threshold
NHERF3_1, Q5T2W1; [1]
  pKd: below the threshold
NHERF4_2, Q86UT5; [1]
  pKd: below the threshold
PDZD7_3, Q9H5P4; [1]
  pKd: below the threshold
SCRIB_1, Q14160; [1]
  pKd: below the threshold
SIPA1L2, Q9P2F8; [1]
  pKd: below the threshold
TIAM2, Q8IVF5; [1]
  pKd: below the threshold
TJP3_3, O95049; [1]
  pKd: below the threshold

## RRVRKLPSTTL [RPS6KA1_-3P, Q15418]
APBA1_2, Q02410; [2]
  pKd: below the threshold
APBA2_1, Q99767; [2]
  pKd: below the threshold
CASK, O14936; [2]
  pKd: below the threshold
DFNB31_1, Q9P202; [2]
  pKd: 3.6
DFNB31_2, Q9P202; [2]
  pKd: below the threshold
DLG1_1, Q12959; [2]
  pKd: 3.69
DLG1_2, Q12959; [2]
  pKd: 3.61
DLG1_3, Q12959; [2]
  pKd: below the threshold
GIPC2, Q8TF65; [2]
  pKd: below the threshold
GRIP1_5, Q9Y3R0; [2]
  pKd: below the threshold
GRIP2_6, Q9C0E4; [2]
  pKd: below the threshold
HTRA4, P83105; [2]
  pKd: 3.72
Inadl_3, Q8NI35; [2]
  pKd: below the threshold
LNX2_3, Q8N448; [2]
  pKd: below the threshold
LRRC7, Q96NW7; [2]
  pKd: below the threshold
MAGI2_6, Q86UL8; [2]
  pKd: below the threshold
MAST1, Q9Y2H9; [2]
  pKd: below the threshold
NHERF2_2, Q15599; [2]
  pKd: 3.68
NHERF3_1, Q5T2W1; [2]
  pKd: below the threshold
NHERF4_2, Q86UT5; [2]
  pKd: below the threshold
PDZD7_3, Q9H5P4; [2]
  pKd: 3.72
SCRIB_1, Q14160; [2]
  pKd: 4.07
SIPA1L2, Q9P2F8; [2]
  pKd: below the threshold
TIAM2, Q8IVF5; [2]
  pKd: below the threshold
TJP3_3, O95049; [2]
  pKd: below the threshold

## TMQMSLKDLL [GLA, P06280]
APBA1_2, Q02410; [1]
  pKd: 3.53
APBA2_1, Q99767; [1]
  pKd: below the threshold
CASK, O14936; [1]
  pKd: below the threshold
DFNB31_1, Q9P202; [1]
  pKd: below the threshold
DFNB31_2, Q9P202; [1]
  pKd: below the threshold
DLG1_1, Q12959; [1]
  pKd: below the threshold
DLG1_2, Q12959; [1]
  pKd: below the threshold
DLG1_3, Q12959; [1]
  pKd: below the threshold
GIPC2, Q8TF65; [1]
  pKd: 3.62
GRIP1_5, Q9Y3R0; [1]
  pKd: 3.51
GRIP2_6, Q9C0E4; [1]
  pKd: below the threshold
HTRA4, P83105; [1]
  pKd: below the threshold
Inadl_3, Q8NI35; [1]
  pKd: below the threshold
LNX2_3, Q8N448; [1]
  pKd: below the threshold
LRRC7, Q96NW7; [1]
  pKd: below the threshold
MAGI2_6, Q86UL8; [1]
  pKd: below the threshold
MAST1, Q9Y2H9; [1]
  pKd: 4.03
NHERF2_2, Q15599; [1]
  pKd: 3.62
NHERF3_1, Q5T2W1; [1]
  pKd: 4.34
NHERF4_2, Q86UT5; [1]
  pKd: below the threshold
PDZD7_3, Q9H5P4; [1]
  pKd: below the threshold
SCRIB_1, Q14160; [1]
  pKd: below the threshold
SIPA1L2, Q9P2F8; [1]
  pKd: below the threshold
TIAM2, Q8IVF5; [1]
  pKd: below the threshold
TJP3_3, O95049; [1]
  pKd: below the threshold
